Assay results: FireProtDB (doi:10.1021/bi9929958)

Details: Homo sapiens; pH 7.8; Thermal; DSC; Potassium phosphate 20 mM; reversible: yes; whole UniProt chain shown

B1: Superoxide dismutase [Mn], mitochondrial wild type, P04179 (protein)
chain: MLSRAVCGTSRQLAPVLGYLGSRQKHSLPDLPYDYGALEPHINAQIMQLHHSKHHAAYVNNLNVTEEKYQEALAKGDVTAQIALQPALKFNGGGHINHSIFWTNLSPNGGGEPKGELLEAIKRDFGSFDKFKEKLTAASVGVQGSGWGWLGFNKERGHLQIAACPNQDPLQGTTGLIPLLGIDVWEHAYYLQYKNVRPDYLKAIWNVINWENVTERYMACKK
Tm: 88.9 °C
